The target of this experiment is histone H3 tail symmetrically dimethylated on R2 and trimethylated on K4 (H3R2me2sK4me3). Kind of experiment: fluorescence polarisation. For orientation: Polarisation of emitted light reports the rotation of a fluorescent probe.

As to PHD finger of RAG2 (domain or fragment), the fold increase in binding affinity against H3K4me3 alone was 20 fold.

For the origin of these results see publication PMC3377377.
